# From article PMC3674325
# Assays:
# APOBEC3A (A3A) wild-type [1] = molecular target: T1, APOBEC3A (A3A) wild-type (Homo sapiens, UniProt P31941 1-199); test: NMR titration
# APOBEC3A (A3A) wild-type [2] = molecular target: T1, APOBEC3A (A3A) wild-type; test: NMR titration; remark: listed apart in the source
# APOBEC3A (A3A) wild-type [3] = molecular target: T1, APOBEC3A (A3A) wild-type; test: EMSA
# APOBEC3A E72Q = APOBEC3A E72Q (Homo sapiens, UniProt P31941 1-199, E72Q); test: NMR titration
# APOBEC3A E72Q, sequence (P31941 whole entry E72Q): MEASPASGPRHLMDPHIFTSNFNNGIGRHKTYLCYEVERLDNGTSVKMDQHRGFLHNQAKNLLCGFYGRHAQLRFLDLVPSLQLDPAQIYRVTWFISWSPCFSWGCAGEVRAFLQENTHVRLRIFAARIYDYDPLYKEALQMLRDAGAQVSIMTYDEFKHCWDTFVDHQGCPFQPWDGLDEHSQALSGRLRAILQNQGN
# T1 sequence (P31941 whole entry): as the sequence (P31941 whole entry E72Q) above, with Q72E counted along it
binder,measurement,setting,value
"ATTATTTUATTTATT (ssDNA, dU at position 8) [ATTATTTUATTTATT (15-nt product)]",Kd,APOBEC3A (A3A) wild-type [1],57 ± 11 µM
"AAACCAAAA (ssDNA, C deaminated to dU during titration) [AAACCAAAA (value is for dU-containing product)]",Kd,APOBEC3A (A3A) wild-type [2],94 ± 11 µM
AUUAUUAUUAUUAUUAUUAUUUCAUUUAUUUAUUUAUUUA (ssRNA) [40-nt ssRNA JL931],apparent K (half saturation),APOBEC3A (A3A) wild-type [3],~40 µM
"TCATTT (ssDNA, C at position 2 converted to dU during titration) [TCATTT (6-nt; value is for dU product)]",Kd,APOBEC3A (A3A) wild-type [2],194 ± 18 µM
"ATTTUATTT (ssDNA, dU at position 5) [ATTTUATTT (9-nt product)]",Kd,APOBEC3A (A3A) wild-type [1],58 ± 8 µM
"AAACAAAAA (ssDNA, C deaminated to dU during titration) [AAACAAAAA (value is for dU-containing product)]",Kd,APOBEC3A (A3A) wild-type [2],161 ± 19 µM
ATTATTTCATTTATT (ssDNA) [ATTATTTCATTTATT (15-nt substrate)],Kd,APOBEC3A E72Q,55 ± 11 µM
ATTATTATTATTATTATTATTTCATTTATTTATTTATTTA (ssDNA) [40-nt ssDNA JL895],Kd,APOBEC3A (A3A) wild-type [3],~80 µM
"AAACCCAAA (ssDNA, C deaminated to dU during titration) [AAACCCAAA (value is for dU-containing product)]",Kd,APOBEC3A (A3A) wild-type [2],91 ± 15 µM
